B1: G9: human anti-HMG1 antibody; VL/VH aa SEQ ID NO: 34/36 (antibody, listed as Homo sapiens, V domains shown)
VH: EVQLLESGGGLVQPGGSLRLSCAASGFTFSSYDMFWVRQAPGKGLEWVSRISPSGGYTYYADSVKGRFTISRDNSKNTLYLQMNSLRAEDTAVYYCARLRYFDSRGYAFDIWGQGTMVTVSS
VL: AQDIQMTQSPGTLSLSPGERATLSCRASQSVRSSYLAWYQQKPGQAPRLLIYGASTRATGIPDRFSGSGSGTDFTLTISRLEPEDFAVYYCQQYGTSRWTFGQGTKVEIK
B2: S10: human anti-HMG1 antibody; VL/VH aa SEQ ID NO: 58/60 (antibody, listed as Homo sapiens, V domains shown)
VH: EVQLLESGGGLVQPGGSLRLSCAASGFTFSWYDMWWVRQAPGKGLEWVSWIVPSGGITAYADSVKGRFTISRDNSKNTLYLQMNSLRAEDTATYYCARGNYGPSPFDYWGQGTLVTVSS
VL: AQDIQMTQSPGTLSLSPGERATLSCRATQSVRKNFLAWYQQKPGQAPRLLIYDASSRATGIPDRFSGSGSGTDFTLTISRLEPEDFAVYYCQQYGNSPIIFGQGTRLEIK
B3: S12: human anti-HMG1 antibody; VL/VH aa SEQ ID NO: 62/64 (antibody, listed as Homo sapiens, V domains shown)
VH: EVQLLESGGGLVQPGGSLRLSCAASGFTFSKYIMHWVRQAPGKGLEWVSGIVPSGGLTEYADSVKGRFTISRDNSKNTLYLQMNSLRAEDTATYYCAKEIFGQFDYWGQGTLVTVSS
VL: AQSALTQPPSVSAAPRQRVTISCSGSTSNIGNNAVTWYQYFPGKAPKLLIYSDNQRPSGVPDRFSGSKSGTSASLAITGLQAEDEADYYCQSYDRGLSVVFGGGTKLTVL
B4: S17: human anti-HMG1 antibody; VL/VH aa SEQ ID NO: 70/72 (antibody, listed as Homo sapiens, V domains shown)
VH: EVQLLESGGGLVQPGGSLRLSCAASGFTFSYYDMHWVRQAPGKGLEWVSRISPSGGYTWYADSVKGRFTISRDNSKNTLYLQMNSLRAEDTAVYYCTRGRYTSGWHEYFDPWGQGTLVTVSS
VL: AQDIQMTQSPSSLSASVGDRVTITCRASQSIGTYLNWYQQKPGTAPKVLIYAASSLQSGVPSRFSGSGSGTDFTLTISSLQPEDFSTYYCQQSYNTPRTFGQGTKLEIK
B5: G2: human anti-HMG1 IgG1 from Fab phage display library; VL/VH aa SEQ ID NO: 30/32 (antibody, listed as Homo sapiens, V domains shown)
VH: EVQLLESGGGLVQPGGSLRLSCAASGFTFSWYKMQWVRQAPGKGLEWVSGISPSGGSTAYADSVKGRFTISRDNSKNTLYLQMNSLRAEDTAVYYCAKMGLFNTGNSYVDYWGQGTLVTVSS
VL: AQSELTQPPSVSEAPGQRVTISCSGSTSNIGNNAVIWYQQLPGKAPKLLIYYDDLLPSGVSDRFSGSKSGTSGSLAISGLQSEDEADYYCASWDDNLNGPLFGGGTKLTVL
B6: G20: human anti-HMG1 antibody; VL/VH aa SEQ ID NO: 46/48 (antibody, listed as Homo sapiens, V domains shown)
VH: EVQLLESGGGLVQPGGSLRLSCAASGFTFSWYDMFWVRQAPGKGLEWVSWISPSGGYTKYADSVKGRFTISRDNSKNTLYLQMNSLRAEDTAMYYCARSGLDYYDSSGYLDAFDIWGQGTMVTVSS
VL: AQDIQMTQSPSSVSASVGDRVTITCRASQDVSIWLAWYQQKPGKAPKLLIFGASRLQSGVPSRFSGSRSGADFTLTIDSVQPEDFASYYCQQADSFPLTFGGGTKVEIK
B7: S16: human anti-HMG1 antibody, ATCC PTA-6259; VL/VH aa SEQ ID NO: 13/15 (antibody, listed as Homo sapiens, V domains shown)
VH: EVQLLESGGGLVQPGGSLRLSCAASGFTFSWYSMLWVRQAPGKGLEWVSYISPSGGFTNYADSVKGRFTISRDNSKNTLYLQMNSLRAEDTAVYYCARWDYNSGWYYDHWGQGTLVTVSS
VL: AQDIQMTQSPDTLSLSPGERATLSCRASQSVNSRNLAWYQQKPGQAPRLLIYGASTRATGIPDRFSGSVSGTEFTLTISSLQPDDFATYYCQQYNSYFTFGQGTKLEIK
B8: E11: human anti-HMG1 antibody, recognizes HMG1 A-Box; VL/VH aa SEQ ID NO: 24/26 (antibody, listed as Homo sapiens, V domains shown)
VH: EVQLLESGGGLVQPGGSLRLSCAASGFTFSRYQMNWVRQAPGKGLEWVSSISPSGGHTHYADSVKGRFTISRDNSKNTLYLQMNSLRAEDTAVYYCAKDGRQGKISTVDHWGQGTLVTVSS
VL: AQDIQMTQSPGTLSLSPGERATLSCRASQSVRSNFLAWYQQKPGQAPRLLIYGASRRASGIPDRFSGSGFGADFTLSISRLEPEDFAVYYCQQYGSSPNTFGQGSRVEIK

Tests used:
[1] = Differential scanning calorimetry; assay type: physicochemical; parameters: unit: °C; conditions: in °C (unit assumed)
Procedure: Differential Scanning Calorimetry: Thermal melting temperatures (Tm) were measured with a VP-DSC (MicroCal, LLC) using a scan rate of 1.0° C./min and a temperature range of 25-120° C. A filter period of 8 seconds was used along with a 5 minute pre-scan thermostating. Samples were prepared by dialysis into 25 mM Histidine-HCl, pH 6 using Pierce dialysis cups (3.5 kD). Average Mab concentrations were 50 μg/mL as determined by A280. Melting temperatures were determined following manufacturer procedures using Origin software supplied with the system. Briefly, multiple baselines were run with buffer in both the sample and reference cell to establish thermal equilibrium. After the baseline was subtracted from the sample thermogram, the data were concentration normalized and fitted using the deconvolution function.

[2] = target: T1, HMG1 peptides (Homo sapiens, UniProt P09429); test: HMG1 B Box and peptide mapping ELISA; assay type: binding; conditions: B Box peptide ELISA
T1 sequence (P09429 91-169 P98L): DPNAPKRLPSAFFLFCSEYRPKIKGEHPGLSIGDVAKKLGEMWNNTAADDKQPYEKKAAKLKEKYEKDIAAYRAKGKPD
Procedure: (§1) HMG1 B Box and Peptide Mapping: Individual wells of a 96-well immunoplate (EIA/RIA plate, High binding, Costar) were coated with HMG1 B Box peptide amino acids 91-169 (FIG. 5A) or amino acids 150-183 (FIG. 5B) at 10 μg/ml in PBS at 4° C. overnight. The plate was then blocked with 4% milk powder dissolved in PBS at 37° C. for 1 hour. The blocking solution was removed and replaced with human anti-HMG1 antibodies at various concentrations (see FIGS. 5A-B). The plate was then washed (ELX-405 Plate washer, BIO-TEK) and secondary antibody (anti-human IgG-HRP, PIERCE) was added at a final concentration of 1:125,000 at 37° C. for 1 hour. HRP activity was detected with Sureblue HRP substrate (KPL). Plates were read at 450 nm using a Kinetic Microplate Reader (Molecular Devices). To obtain more detailed peptide mapping information, similar ELISA assays were performed using 16 biotinylated overlapping peptides spanning the HMGB1 protein from amino acid 1 to 215 as follows, maxisorp microtiter plate was coated with 2 μg/ml of NeutroAvidin (Pierce) overnight at 4° C. After washing and blocking with 1% BSA in PBS, the biotinylated peptides were individually added into the avidin coated wells and incubated for 30 min at room temperature. The serial diluted antibody G4, S16 and S6 at the initial concentration at 10 μg/ml were then transferred into the wells followed by adding mouse anti human IgG-HRP conjugate (Pierce). Detection was accomplished by adding 50 μl of tetramethylbenzidine (TMB) substrate (KPL) and the absorbance was read at […]. The peptides used were amino acids: 46-63; 61-78; 76-93; 91-108; 106-123; 136-153; 151-168; 166-183; 179-185; 181-198; and 196-215.

[3] = target: T2, HMG1 peptides (Homo sapiens, UniProt P09429); test: HMG1 B Box and peptide mapping ELISA; assay type: binding; conditions: B Box peptide ELISA; remark: listed apart in the source
T2 sequence (P09429 150-183): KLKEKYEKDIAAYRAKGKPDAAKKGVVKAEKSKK
Procedure: as §1

[4] = target: T3, recombinant HMG1 (Homo sapiens, UniProt P09429); test: HMG1 binding affinity via BIAcore analysis
T3 construct: made in house; host or cells: E. coli
T3 sequence (P09429 1-215): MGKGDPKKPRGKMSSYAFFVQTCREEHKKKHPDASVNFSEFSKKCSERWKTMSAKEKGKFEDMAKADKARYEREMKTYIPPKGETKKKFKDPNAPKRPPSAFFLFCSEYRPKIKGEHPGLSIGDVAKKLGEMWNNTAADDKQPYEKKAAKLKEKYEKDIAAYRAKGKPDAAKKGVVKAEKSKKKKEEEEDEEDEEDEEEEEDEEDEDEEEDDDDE
Procedure: HMG1 Binding Affinity via BIAcore Analysis: All experiments were performed on a BIAcore 3000 instrument (BIAcore, Inc., Piscataway, N.J.). Briefly, each mAb was immobilized to a CM5 sensor chip using a standard amino coupling chemistry. Separately a reference (control) flow cell was also prepared. Two-fold, serial dilutions of HMG1 in instrument buffer were sequentially injected at a slow flow rate over the individual mAb and reference flow-cell surfaces. Following the binding and dissociation of HMG1, the mAbs surfaces were regenerated with a brief pulse of 1M NaCl-50 mM NaOH. At the end of each experiment, the binding curves were evaluated using a steady-state model available through the BIA evaluation software supplied by BIAcore, Inc. (Piscataway, N.J.).

[5] = test system: mouse CLP model of sepsis; test: Cecal ligation and puncture (CLP) model of sepsis; assay type: in vivo; conditions: percent protection, isotype control subtracted
Procedure: Anti-HMGB1 in Sepsis: To establish live intra-abdominal infection and sepsis, Balb/C mice (9-11 per group) were subjected to the CLP procedure as described previously (Fink and Heard, 1990, J Surg Res 49:186-196; Wichmann et al., 1996, J Surg Res 65, 109-114). After anesthesia with an intramuscular injection of ketamine (75 mg/kg, Fort Dodge Laboratories, Fort Dodge, Iowa) and xylazine (20 mg/kg, Bochringer Ingelheim), a 15-mm midline incision was made to expose the cecum. After ligation 5.0 mm from the tip, the cecal stump was punctured once with a 22-gauge needle, and small amount of stool (1-mm length) was extruded. The cecum was placed back into its normal intra-abdominal position, and the wound was closed with two layers of running suture. All animals received saline-solution (0.9% s.c., 20 ml/kg of body weight) resuscitation, and a single dose of antibiotic (0.5 mg of imipenem per mouse in 200 μl of sterile saline injected s.c.) (Primaxin, Merck) 30 min after surgery.
Anti-HMG1 antibodies or isotype control antibodies (50 μg/mouse in a 200 μl volume), were administered intraperitoneally at 24 and 48 hours, post surgery. In certain follow up experiments anti-HMG1 antibodies or isotype control antibodies (8 mg/kg) were administered intraperitoneally at 24 hours, post surgery (FIG. 11C-D). These experiments were blinded—the surgeons randomized the cages, and the encoded antibodies were dosed by another investigator. The survival of the mice was monitored twice daily for a total of 14 days. The survival curves for several representative experiments where the antibodies were delivered at 50 μg/mouse at times 24 and 48 are shown in FIGS. 11A and 11B. The survival curve generated by combining several representative experiments where the antibodies were delivered at 8 mg/kg 24 hours post surgery is shown in FIG. 11C. Several additional antibodies and the oligoclonal antibody pool were tested at 8 mg/kg administered 24 hours post surgery (FIG. 11D).

Molecule	Tm [1]	binding to HMG1 peptide 91-169 [2]	binding to HMG1 peptide 150-183 [3]	Kd [4] [nM]	in vivo CLP [5]
B1	77.9	do not bind either of the HMG1 B Box peptides	do not bind either of the HMG1 B Box peptides	–	–
B2	75.3	do not bind either of the HMG1 B Box peptides	do not bind either of the HMG1 B Box peptides	–	–
B3	66.9	bind to HMG1 peptide 91-169	only S12 binds to HMG1 peptide 150-183	–	–
B4	90.0	–	–	331	–
B5	67.1	do not bind either of the HMG1 B Box peptides	do not bind either of the HMG1 B Box peptides	101	60%
B6	71.2	–	–	114	–
B7	71.4	bind to HMG1 peptide 91-169	–	–	60-75%
B8	66.3	–	–	–	35%

From patent publication US20080311122A1, “Antagonists of Hmgb1 and/or Rage and Methods of Use Thereof” (Medimmune, LLC, priority 2005, published 2008)
